Experimental data reported in patent US20260167721A1 (ABLEXIS, published 2026).

Tests used:
[1] = biological target: T1, recombinant human CD3 epsilon/delta heterodimer (human, UniProt P07766 23-126; P04234 22-105); test: Octet BLI, mAb on FAB2G sensor, hCD3 E/D 200-50 nM; R^2 0.98;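 further: antibodies purified from hybridoma supernatants, measured by Octet binding to recombinant human CD3 protein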
T1 construct: Recombinant protein in solution (200-50 nM) in the Octet assay; also called hCD3 E/D; human CD3E/D

[2] = biological target: T2, recombinant human CD3 epsilon/gamma heterodimer (human, UniProt P07766 23-126; P09693 23-116); test: Octet BLI, mAb on FAB2G sensor, hCD3 E/G 200-50 nM; R^2 0.90
T2 construct: Recombinant protein in solution (200-50 nM) in the Octet assay; also called hCD3 E/G

[3] = biological target: CD3 on effector cells (human Pan-T or PBMC) (human, UniProt P07766 23-207; P04234 22-171; P09693 23-182; P20963 22-164); test: cell-based or functional assay
[4] = biological target: recombinant CD3 proteins; test: Octet (BLI), bispecific antibody against recombinant CD3 proteins
[5] = biological target: recombinant CD3 proteins; test: Octet (BLI), bispecific antibody against recombinant CD3 proteins; Full R^2 0.00
[6] = biological target: T1, recombinant human CD3 epsilon/delta …; test: Octet BLI, mAb on FAB2G sensor, hCD3 E/D 200-50 nM; R^2 0.95
[7] = biological target: T2, recombinant human CD3 epsilon/gamma …; test: Octet BLI, mAb on FAB2G sensor, hCD3 E/G 200-50 nM; R^2 0.96
[8] = biological target: T1, recombinant human CD3 epsilon/delta …; test: Octet BLI, mAb on FAB2G sensor, hCD3 E/D 200-50 nM; R^2 0.92
[9] = biological target: T2, recombinant human CD3 epsilon/gamma …; test: Octet BLI, mAb on FAB2G sensor, hCD3 E/G 200-50 nM; R^2 0.59
[10] = biological target: T2, recombinant human CD3 epsilon/gamma …; test: Octet BLI, mAb on FAB2G sensor, hCD3 E/G 200-50 nM; R^2 0.95
[11] = biological target: T1, recombinant human CD3 epsilon/delta …; test: Octet BLI, mAb on FAB2G sensor, hCD3 E/D 200-50 nM; R^2 0.96
[12] = biological target: T2, recombinant human CD3 epsilon/gamma …; test: Octet BLI, mAb on FAB2G sensor, hCD3 E/G 200-50 nM; R^2 0.64
[13] = biological target: T2, recombinant human CD3 epsilon/gamma …; test: Octet BLI, mAb on FAB2G sensor, hCD3 E/G 200-50 nM; R^2 0.85
[14] = biological target: T1, recombinant human CD3 epsilon/delta …; test: Octet BLI, mAb on FAB2G sensor, hCD3 E/D 200-50 nM; R^2 1.00
[15] = biological target: T2, recombinant human CD3 epsilon/gamma …; test: Octet BLI, mAb on FAB2G sensor, hCD3 E/G 200-50 nM; R^2 0.76
[16] = biological target: T1, recombinant human CD3 epsilon/delta …; test: Octet BLI, mAb on FAB2G sensor, hCD3 E/D 200-50 nM; R^2 0.94
[17] = biological target: T2, recombinant human CD3 epsilon/gamma …; test: Octet BLI, mAb on FAB2G sensor, hCD3 E/G 200-50 nM; R^2 0.92
[18] = biological target: T2, recombinant human CD3 epsilon/gamma …; test: Octet BLI, mAb on FAB2G sensor, hCD3 E/G 200-50 nM; R^2 0.00

T1 sequence (P07766 23-126, stated change not applied, chain 1 of 2): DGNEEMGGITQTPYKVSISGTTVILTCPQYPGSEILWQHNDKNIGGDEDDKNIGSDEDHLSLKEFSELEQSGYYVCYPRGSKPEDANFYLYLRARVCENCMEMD
T1 sequence (P04234 22-105, stated change not applied, chain 2 of 2): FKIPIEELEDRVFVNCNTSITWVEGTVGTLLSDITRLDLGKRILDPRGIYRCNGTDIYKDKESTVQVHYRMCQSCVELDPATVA
T2 sequence (P07766 23-126, chain 1 of 2): as the sequence (P07766 23-126, stated change not applied, chain 1 of 2) above
T2 sequence (P09693 23-116, chain 2 of 2): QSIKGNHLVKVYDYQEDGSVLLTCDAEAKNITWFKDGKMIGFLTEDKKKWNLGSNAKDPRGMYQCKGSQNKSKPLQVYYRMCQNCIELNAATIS
Sequence of CD3 on effector cells (human Pan-T or PBMC) (P07766 23-207, chain 1 of 4): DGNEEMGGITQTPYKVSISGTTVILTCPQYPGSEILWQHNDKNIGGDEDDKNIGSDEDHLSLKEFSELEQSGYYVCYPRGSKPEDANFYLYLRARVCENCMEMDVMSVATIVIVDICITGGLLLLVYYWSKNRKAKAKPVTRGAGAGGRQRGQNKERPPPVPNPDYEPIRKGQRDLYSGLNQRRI
Sequence of CD3 on effector cells (human Pan-T or PBMC) (P04234 22-171, chain 2 of 4): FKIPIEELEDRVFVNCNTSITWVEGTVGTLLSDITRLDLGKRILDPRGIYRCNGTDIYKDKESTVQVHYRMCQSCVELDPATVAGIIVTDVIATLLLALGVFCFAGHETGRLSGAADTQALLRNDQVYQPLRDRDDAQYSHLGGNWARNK
Sequence of CD3 on effector cells (human Pan-T or PBMC) (P09693 23-182, chain 3 of 4): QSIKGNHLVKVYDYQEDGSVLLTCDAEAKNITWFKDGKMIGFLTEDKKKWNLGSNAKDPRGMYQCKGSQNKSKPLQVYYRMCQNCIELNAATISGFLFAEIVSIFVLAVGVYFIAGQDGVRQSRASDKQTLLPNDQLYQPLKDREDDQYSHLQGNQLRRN
Sequence of CD3 on effector cells (human Pan-T or PBMC) (P20963 22-164, chain 4 of 4): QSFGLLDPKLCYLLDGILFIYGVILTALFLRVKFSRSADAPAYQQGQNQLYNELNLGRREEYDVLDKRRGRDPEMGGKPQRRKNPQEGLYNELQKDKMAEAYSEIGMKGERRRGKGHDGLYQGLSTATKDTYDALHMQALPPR

B1: ABL-CD3-44 (antibody, V domains shown)
VH: EVQLVESGGGLVQPGGSLRLSCAASGFTFSTYWMSWVRQAPGKGLEWVANIKQDGSEKYYVDSVKGRFTISRDNAKNSLYLQMNSLRAEDTAVYYCATGSFDYWGQGTLVTVSS
VL: QPVLTQPSSHSASSGASVRLTCMLSSGFSVGDFWIRWYQQKPGNPPRYLLFYHSDSNKGQGSGVPSRFSGSNDASANAGILRISGLQPEDEADYYCGTWHSNSKTWVFGGGTKLTVL
notes: Chimeric hybridoma mAb: human V, CH1, upper hinge; mouse middle hinge, CH2, CH3
Work on B1 yielded a Kd [1] of 356 nM, a Response [1] of 0.03 and a koff [1] of 0.000184 s⁻¹. The kon [1] was 517 M⁻¹ s⁻¹ and the Kd [2] was under 1 pM.

B2: CD3 × CD33-BspAb66 (bispecific antibody, human IgG1, kappa)
scFv: EVQLVESGGGLVQPGRSLRLSCAASGFTFDDYAMHWVRQAPGKGLEWVSGISWNSGSIGYADSVKGRFTISRDNAKNSLYLQMNSLRAEDTALYYCAKDSRGYGDYRLGGAYWGQGTLVTVSSGGGGSGGGGSGGGGSGGGGSEIVMTQSPATLSVSPGERATLSCRASQSVSSNLAWYQQKPGQAPRLLIYGASTRATGIPARFSGSGSGTEFTLTISSLQSEDFAVYYCQQYNNWPWTFGQGTKVEIKTSGPGGPDKTHTCPPCPAPEFEGGPSVFLFPPKPKDTLMISRTPEVTCVVVDVSHEDPEVKFNWYVDGVEVHNAKTKPREEQYNSTYRVVSVLTVLHQDWLNGKEYKCKVSNKALPASIEKTISKAKGQPREPQVYTLPPCREEMTKNQVSLWCLVKGFYPSDIAVEWESNGQPENNYKTTPPVLDSDGSFFLYSKLTVDKSRWQQGNVFSCSVMHEALHNHYTQKSLSLSPGK
heavy: EVQLVQSGAEVKKPGSSVKVSCKASGYTITDSNIHWVRQAPGQSLEWIGYIYPYNGGTDYNQKFKNRATLTVDNPTNTAYMELSSLRSEDTAFYYCVNGNPWLAYWGQGTLVTVSSASTKGPSVFPLAPSSKSTSGGTAALGCLVKDYFPEPVTVSWNSGALTSGVHTFPAVLQSSGLYSLSSVVTVPSSSLGTQTYICNVNHKPSNTKVDKRVEPKSCDKTHTCPPCPAPEFEGGPSVFLFPPKPKDTLMISRTPEVTCVVVDVSHEDPEVKFNWYVDGVEVHNAKTKPREEQYNSTYRVVSVLTVLHQDWLNGKEYKCKVSNKALPASIEKTISKAKGQPREPQVCTLPPSREEMTKNQVSLSCAVKGFYPSDIAVEWESNGQPENNYKTTPPVLDSDGSFFLVSKLTVDKSRWQQGNVFSCSVMHEALHNRFTQKSLSLSPGK
light: DIQLTQSPSTLSASVGDRVTITCRASESLDNYGIRFLTWFQQKPGKAPKLLMYAASNQGSGVPSRFSGSGSGTEFTLTISSLQPDDFATYYCQQTKEVPWSFGQGTKVEVKRTVAAPSVFIFPPSDEQLKSGTASVVCLLNNFYPREAKVQWKVDNALQSGNSQESVTEQDSKDSTYSLSSTLTLSKADYEKHKVYACEVTHQGLSSPVTKSFNRGEC
notes: also called CD3δε-specific control antibody scFv-Fc knob/TM; CD3xCD33-BspAb66
For B2, the “RTCC EC50 (nM), KILR HL-60 T Cell Redirection cytotoxic assay with CD33-expressing target cells” value [3] was 25.4 nM, the Response [4] was 0.03 and the Kd [5] was 0.854 nM. For the same binder, the koff [5] was 1.07e-05 s⁻¹ and the kon [5] was 12500 M⁻¹ s⁻¹.

B3: ABL-CD3-32 (antibody, V domains shown)
VH: EVQLVESGGGLVKPGGSLRLSCEASGFTFSSYNMNWVRQAPGKGLEWVSSISSSSSYIYYTDSVKGRFTISRDNAKNSLYLQMNSLRAEDTAVYYCARAERGSYAFDFWGQGTMVTVSS
VL: not shown
notes: as for B1
Binder B3 has a Kd [6] of 38.9 nM, a koff [6] of 0.0152 s⁻¹ and a kon [6] of 390000 M⁻¹ s⁻¹. For the same binder, the Kd [7] was 31.6 nM, the koff [7] was 0.00962 s⁻¹ and the kon [7] was 305000 M⁻¹ s⁻¹.

B4: ABL-CD3-37 (antibody, V domains shown)
VH: EVQLVESGGGLVQPGGSLRLSCAASGFSFSSYSMNWVRQAPGKGLEWVSHIRSSTYSIYYADSVMGRFTISRDNAKNSLYLQMNSLRDEDTAVYFCARAKTGGDAFDIWGQGTMVTVSS
VL: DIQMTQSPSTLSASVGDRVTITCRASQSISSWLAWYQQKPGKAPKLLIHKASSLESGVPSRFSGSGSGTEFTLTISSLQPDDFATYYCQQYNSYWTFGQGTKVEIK
notes: as for B1
B4 gave a Kd [8] of 17.8 nM, a koff [8] of 0.00404 s⁻¹ and a kon [8] of 227000 M⁻¹ s⁻¹. It also gave a Kd [9] of 1.43 nM, a koff [9] of 0.00269 s⁻¹ and a kon [9] of 1.89e+06 M⁻¹ s⁻¹.

B5: ABL-CD3-61 (antibody, V domains shown)
VH: EVQLVESGGGLVKPGGSLRLSCAASGFTFSSYSMNWVRQAPGKGLEWVSSISRSGTYIYYADSVKGRFTISRDNAKNSLYLQMNSLRAEDTAVYYCARERWELLYFDYWGQGTLVTVSS
VL: QTVVTQEPSLTVSPGGTVTLTCASSTGAVTSGYYPNWFQQKPGQAPRALIYSTSNKHSWTPARFSGSLLGGKAALTLSGVQPEDEAEYYCLLYYGGAYVFGTGTKVTVL
notes: as for B1
In the case of B5, the Kd [1] is reported as 117 nM, the Response [1] is reported as 0.26 and the koff [1] is reported as 0.0218 s⁻¹. For the same binder, the kon [1] was 187000 M⁻¹ s⁻¹, the Kd [10] was 69.2 nM and the koff [10] was 0.0402 s⁻¹. It also gave a kon [10] of 581000 M⁻¹ s⁻¹.

B6: ABL-CD3-27 (antibody, V domains shown)
VH: QVQLVQSGAEVKKPGASLKVSCKASGYTFTSYYMHWVRQAPGQGLEWMGIINPSNGNTISAQKFQGRVTMTRDTSTSTVYMEMSSLRSEDTAVYYCVRCWGYYVMDVWGQGTTVTVSS
VL: QTVVTQEPSFSVSPGGTVTLTCGLNSGSVSTSYYPSWYQQTPGQTPRTLIYSTNTRSSGVPDRFSGSILGNKAALTITGAQADDESDYYCVLYMGSGIWVFGGGTKLTVL
notes: as for B1
B6 gave a Kd [11] of 2.31 nM, a Response [11] of 0.39 and a koff [11] of 0.000528 s⁻¹. The kon [11] was 228000 M⁻¹ s⁻¹, the Kd [12] was 3.65 nM and the koff [12] was 0.00156 s⁻¹. The kon [12] was 428000 M⁻¹ s⁻¹.

B7: ABL-CD3-22 (antibody, V domains shown)
VH: EVQLVESGGGLVQPGGSLRLSCAASGFTFSSYSMNWVRQAPGKGLEWVSYISSSSSTIYYADSVKGRFTISRDNAKNSLYLQMNSLRDEDTAVYYCARDGPVDYGMDVWGQGTTVTVSS
VL: SYELTQPPSVSVSPGQTARITCSGDALPKQYTYWCQQKPGQAPVLVIYKDSERPSGIPERFSGSSSGTTVTLTISGVQAEDEADYYCQSADSSGTYRVFGGGTKLTVL
notes: as for B1
B7 was tested, and the Kd [11] was 49.2 nM, the Response [11] was 0.08 and the koff [11] was 0.00513 s⁻¹. For the same binder, the kon [11] was 104000 M⁻¹ s⁻¹, the Kd [13] was 14.4 nM and the koff [13] was 0.00639 s⁻¹. For the same binder, the kon [13] was 444000 M⁻¹ s⁻¹.

B8: ABL-CD3-36 (antibody, V domains shown)
VH: EVQLVESGGGLVQRGGSLRLSCAASGFTFSNYWMSWVRQAPGKGLEWVANIKEDGSEKYCVDSVKGRFTISRDNAKHSLYLQMNSLRAEDTAVYYCARERRTGYFDYWGQGTLVTVSS
VL: DIQMTQSPSTLSASVGDRVTITCRASQSISSWLAWFQQKTGKAPKLLIYKASSLESGVPSRFSGSGSGTEFTLTISSLQPDDFATYYCQQYISYSWTFGQGTKVEIK
notes: as for B1
B8 was tested, and the Kd [14] was 25 nM, the Response [14] was 0.49 and the koff [14] was 0.00101 s⁻¹. It also gave a kon [14] of 40400 M⁻¹ s⁻¹, a Kd [15] of 4.18 nM and a koff [15] of 0.00729 s⁻¹. The kon [15] was 1.74e+06 M⁻¹ s⁻¹.

B9: ABL-CD3-31 (antibody, V domains shown)
VH: EVQLVQSGAEVKKPGESLKISCKGSGYSFTNYWIGWVRQMPGKGLEWMGIIYPADSDTTYSPSFQGQVTISADKSITTAYLQWSSLKASDTAMYYCARHGGSYILDAFDIWGQGTMVTVSS
VL: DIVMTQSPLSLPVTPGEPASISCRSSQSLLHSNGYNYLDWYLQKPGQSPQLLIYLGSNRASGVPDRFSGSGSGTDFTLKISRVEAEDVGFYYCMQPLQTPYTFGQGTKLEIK
notes: as for B1
For B9, the Kd [16] was 6.66 nM, the koff [16] was 0.00149 s⁻¹ and the kon [16] was 223000 M⁻¹ s⁻¹. The Kd [17] was 5.64 nM, the koff [17] was 0.00173 s⁻¹ and the kon [17] was 306000 M⁻¹ s⁻¹.

B10: ABL-CD3-39 (antibody, V domains shown)
VH: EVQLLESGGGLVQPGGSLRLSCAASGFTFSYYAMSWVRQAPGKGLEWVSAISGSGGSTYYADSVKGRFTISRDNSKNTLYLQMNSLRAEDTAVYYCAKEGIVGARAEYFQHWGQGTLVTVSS
VL: DVVMTQSPLSLPVTLGQPASISCRSSQSLVYSDGNTYLTWFQQRPGQSPRRLIYKVSNRDSGVPDRFSGSGSGTDFTLKISRVEAEDVEIYYCMQGTHWPLTFGGGTKVEIK
notes: as for B1
B10 gave a Kd [14] of 8.32 nM, a Response [14] of 0.41 and a koff [14] of 0.000307 s⁻¹. It also gave a kon [14] of 36900 M⁻¹ s⁻¹, a Kd [18] of under 1 pM and a koff [18] of under 1e-07 s⁻¹. For the same binder, the kon [18] was 50000 M⁻¹ s⁻¹.
